According to patent publication US20220185900A1:

Molecular target: human RET on cells (MCF7/SRE-Luc; HEK293/hGFRα3/hRET/SRE-Luc; HEK293/hGFRα1/hRET/SRE-Luc) (human), P07949
Experiment: cell-based or functional assay

- Internalization (% H4H8087P), HEK293/hGFRa1/hRET/SRE-Luc cells, 37 C: 59%
B1: H4H7086N (antibody, human IgG4, V domains shown)
VH: QVQLVESGGGVVQPGRSLRLSCVVSGFTFSNYGMHWVRQGPGRGLEWLALIWYDGSDKYYAESVRGRFTISRDNSKNTVYLQMNSLRAEDTAMYYCTRDRIFDYWGQGTLVTVSS
VL: AIQMTQSPSSLSASVGDRVTITCRASQDIRNDLGWYQHNPGKAPNLLIYAASTLQIGVPSRFRGSGSGTDFTLTISSLQPEDFATYYCLQDFDYPLSFGGGTKVEIR
